Data published in US20060251650A1 (CHILDREN S MEDICAL CENTER, published 2006).

Experiments:
[1] = biological target: T1, Human VEGF165R/NP-1 (neuropilin-1) (human, UniProt O14786 22-923); test: cell-based or functional assay
[2] = biological target: T2, Rat neuropilin-1 on AT3.1 Dunning rat prostate carcinoma cells (rat, UniProt Q9QWJ9 22-922); test: 125I-VEGF165 cross-linking to AT3.1 rat prostate carcinoma cells
T2 construct: whole, on cells; also called VEGF165R/NP-1 (AT3.1 cells)

[3] = biological target: T1, Human VEGF165R/NP-1 (neuropilin-1); test: Scatchard analysis (LIGAND program) of 125I-VEGF165 binding to PAE/NP-1 cells
[4] = biological target: T3, Human NP-2 (neuropilin-2) (human, UniProt O60462 21-931); test: expression cloning: COS-7 cells transfected with single cDNA clones, screened for 125I-VEGF165 binding; seven positive clones, of which this one is NP-2
T3 construct: The open reading frame has 931 amino acids
T3 sequence: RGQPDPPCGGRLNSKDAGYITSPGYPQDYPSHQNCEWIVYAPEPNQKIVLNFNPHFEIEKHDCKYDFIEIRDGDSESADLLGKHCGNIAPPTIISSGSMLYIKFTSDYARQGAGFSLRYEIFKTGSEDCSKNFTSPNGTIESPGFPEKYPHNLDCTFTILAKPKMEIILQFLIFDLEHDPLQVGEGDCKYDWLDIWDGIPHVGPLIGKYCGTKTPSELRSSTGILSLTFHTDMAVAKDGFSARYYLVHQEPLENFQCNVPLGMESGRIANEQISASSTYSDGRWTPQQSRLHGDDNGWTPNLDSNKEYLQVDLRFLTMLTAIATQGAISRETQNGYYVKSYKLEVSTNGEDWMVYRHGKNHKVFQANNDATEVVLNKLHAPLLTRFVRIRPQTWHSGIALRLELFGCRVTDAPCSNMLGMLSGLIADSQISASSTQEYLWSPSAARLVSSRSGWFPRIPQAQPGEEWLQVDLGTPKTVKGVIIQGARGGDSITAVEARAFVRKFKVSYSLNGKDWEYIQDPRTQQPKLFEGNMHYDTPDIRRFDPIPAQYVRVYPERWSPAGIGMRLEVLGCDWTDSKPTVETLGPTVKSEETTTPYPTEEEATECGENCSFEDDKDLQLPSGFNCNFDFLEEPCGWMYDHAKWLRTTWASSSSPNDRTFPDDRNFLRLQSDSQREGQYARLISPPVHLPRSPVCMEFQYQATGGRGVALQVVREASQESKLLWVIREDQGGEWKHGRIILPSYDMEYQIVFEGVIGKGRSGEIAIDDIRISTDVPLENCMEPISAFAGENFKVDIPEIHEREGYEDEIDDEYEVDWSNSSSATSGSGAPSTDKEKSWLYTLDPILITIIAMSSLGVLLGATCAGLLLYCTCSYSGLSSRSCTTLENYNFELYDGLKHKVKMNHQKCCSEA

[5] = biological target: T1, Human VEGF165R/NP-1 (neuropilin-1); test: 125I-VEGF121 binding and chemical cross-linking to PAE/NP-1 cells, SDS-PAGE and autoradiography, 1 µg/ml heparin
Text: The cells were lysed and proteins were resolved by 6% SDS-PAGE.

KDR = biological target: T4, KDR (UniProt P35968 20-1356, limits assumed); test: 125I-collapsin-1 binding to PAE/KDR cells
T4 construct: whole, on cells; also called KDR/Flk-1
T4 sequence (P35968 20-1356 limits assumed): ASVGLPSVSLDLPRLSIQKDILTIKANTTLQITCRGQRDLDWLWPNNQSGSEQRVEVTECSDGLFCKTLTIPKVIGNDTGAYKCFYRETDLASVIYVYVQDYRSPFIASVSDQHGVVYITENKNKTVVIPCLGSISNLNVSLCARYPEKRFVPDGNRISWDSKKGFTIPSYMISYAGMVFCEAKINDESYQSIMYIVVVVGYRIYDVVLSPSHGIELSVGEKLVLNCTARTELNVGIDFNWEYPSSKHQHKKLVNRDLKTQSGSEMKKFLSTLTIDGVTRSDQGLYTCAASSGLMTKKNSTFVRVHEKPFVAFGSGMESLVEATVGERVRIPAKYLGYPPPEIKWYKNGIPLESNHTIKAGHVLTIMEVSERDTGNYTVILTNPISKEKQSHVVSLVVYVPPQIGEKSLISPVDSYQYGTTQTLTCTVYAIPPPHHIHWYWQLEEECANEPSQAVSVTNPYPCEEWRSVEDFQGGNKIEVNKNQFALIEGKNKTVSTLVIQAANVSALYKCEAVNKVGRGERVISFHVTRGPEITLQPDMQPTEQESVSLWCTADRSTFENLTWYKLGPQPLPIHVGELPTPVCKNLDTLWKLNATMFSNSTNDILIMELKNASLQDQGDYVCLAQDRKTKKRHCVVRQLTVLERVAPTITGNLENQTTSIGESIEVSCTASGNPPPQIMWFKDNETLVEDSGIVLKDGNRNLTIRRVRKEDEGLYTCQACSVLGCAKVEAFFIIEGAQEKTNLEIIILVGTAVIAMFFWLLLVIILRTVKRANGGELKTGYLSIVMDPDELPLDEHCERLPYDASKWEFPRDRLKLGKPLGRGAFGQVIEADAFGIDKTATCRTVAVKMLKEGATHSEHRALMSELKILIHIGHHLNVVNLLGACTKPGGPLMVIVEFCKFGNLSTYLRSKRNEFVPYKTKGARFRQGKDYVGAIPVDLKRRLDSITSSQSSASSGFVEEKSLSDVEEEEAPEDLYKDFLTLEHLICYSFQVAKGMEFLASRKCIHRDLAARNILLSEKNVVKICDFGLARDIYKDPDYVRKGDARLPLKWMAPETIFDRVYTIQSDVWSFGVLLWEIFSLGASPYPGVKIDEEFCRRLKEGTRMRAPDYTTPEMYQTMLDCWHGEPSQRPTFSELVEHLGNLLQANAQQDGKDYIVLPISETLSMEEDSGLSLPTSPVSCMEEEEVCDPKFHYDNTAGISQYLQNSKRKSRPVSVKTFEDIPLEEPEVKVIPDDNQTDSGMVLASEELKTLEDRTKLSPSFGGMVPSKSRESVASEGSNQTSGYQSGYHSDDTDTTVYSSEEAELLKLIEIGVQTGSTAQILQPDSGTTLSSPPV

B1: Human recombinant VEGF165 (ligand, UniProt P15692-4 27-191, looked up)
chain: APMAEGGGQNHHEVVKFMDVYQRSYCHPIETLVDIFQEYPDEIEYIFKPSCVPLMRCGGCCNDEGLECVPTEESNITMQIMRIKPHQGQHIGEMSFLQHNKCECRPKKDRARQENPCGPCSERRKHLFVQDPQTCKCSCKNTDSRCKARQLELNERTCRCDKPRR
modifications: radio-iodinated (125I) using IODO-BEADS in the binding and cross-linking experiments
notes: mature
For B1, the “stimulation of 231 breast carcinoma cell motility, Boyden chamber, VEGF165 50 ng/ml” value [1] was 2 fold, the binding result [2] was “binds” and the Kd [3] was ~0.32 nM. B1: binds [4].

B2: Human recombinant VEGF121 (ligand, UniProt P15692-9 27-147, looked up)
chain: APMAEGGGQNHHEVVKFMDVYQRSYCHPIETLVDIFQEYPDEIEYIFKPSCVPLMRCGGCCNDEGLECVPTEESNITMQIMRIKPHQGQHIGEMSFLQHNKCECRPKKDRARQEKCDKPRR
modifications: radio-iodinated (125I) using IODO-BEADS in the cross-linking experiments
notes: mature
B2: no binding (tested: 10 ng/ml) [5].

B3: Recombinant chick collapsin-1 (semaphorin III) (ligand, UniProt Q90607 23-772, looked up)
chain: QHVKNNVPRLKLSYKEMLESNNIVNFNGLANSSSYHTFLLDEERSRLYVGAKDHIFSFNLVNIKEYQKIVWPVSHSRRDECKWAGKDILRECANFIKVLKTYNQTHLYACGTGAFHPMCTYIEVGSHPEDNIFRMEDSHFENGRGKSPYDPKLLTASLLVDGELYSGTAADFMGRDFAIFRTLGHHHPIRTEQHDSRWLNDPRFISAHLIPESDNPEDDKIYFFFRENAIDGEHTGKATHARIGQICKNDFGGHRSLVNKWTTFLKARLICSVPGPNGIDTHFDELQDVFLMNSKDPKNPIVYGVFTTSSNIFKGSAVCMYSMTDVRRVFLGPYAHRDGPNYQWVPYQGRVPYPRPGTCPSKTFGGFDSTKDLPDEVITFARSHPAMYNPVFPINSRPIMIKTDVDYQFTQIVVDRVDAEDGQYDVMFIGTDIGTVLKVVSIPKETWHELEEVLLEEMTVFREPTVISAMKISTKQQQLYIGSATGVSQLPLHRCDVYGKACAECCLARDPYCAWDGSSCSRYFPTAKRRTRRQDIRNGDPLTHCSDLQHHDNPSGQTLEEKIIYGVENSSTFLECSPKSQRAIVYWQFQKQNDDHKVEIKVDDRMIRTEQGLLLRSLQRRDSGIYFCHAVEHGFIQTLLKVTLEVIDTDHLEELLHKEEDADASKTKDATNSMTPSQKIWYRDFMQLINHPNLNTMDEFCEQVWKRDRKQRRQRPANAQVNTNKWKHLQENKKGRNRRTHEFERAPRSV
modifications: 125I-labelled in the binding studies
B3: no binding (KDR).
